Here are results for 1 substance from paper doi:10.64898/2025.12.30.697075.

Several values for one entry are separate records, joined by “and”; a condition that tells them apart may be missing. Identical values can stand only once.

Assay [1] addresses pennycress (Thlaspi arvense) biotin carboxylase (BC) subunit of the plastid heteromeric acetyl-CoA carboxylase (Thlaspi arvense (field pennycress)). The assay is described as follows: cross-linking.
Assay [2] shares this target. The experiment in a line: cryo-EM structure.

For orientation: stoichiometry N means the number of molecules, sites or subunits per partner or assembly. In the case of “pennycress (Thlaspi arvense) biotin carboxylase (BC) subunit of the plastid heteromeric acetyl-CoA carboxylase (enzyme)”, the stoichiometry N in assay [1] was 2 and 4; in assay [2] it was 2 and 4 and 6.
